*1 amine or outer side, *2 acyl side, *3 side chain or, on linkers, in order; H or OH if unused. Where no end group is shown, it is not given here. Side-chain parts run from the residue outwards. [ ]: non-standard residue; d: D form. The star is where a group is joined. αMePhe(2-F) = C[C@](N)(Cc1ccccc1F)C(=O)O; γGlu = O=C(O)[C@H](CCC(=O)[*:2])N[*:1]; C14 diacid = O=C(O)CCCCCCCCCCCCC(=O)*; εLys = N[C@@H](CCCCN[*:1])C(=O)[*:2]; αMeY = C[C@](N)(Cc1ccc(O)cc1)C(=O)O; αMeF = C[C@](N)(Cc1ccccc1)C(=O)O; αMeL = CC(C)C[C@](C)(N)C(=O)O; Orn = NCCC[C@H](N)C(=O)O; AEEA = NCCOCCOCC(=O)O; Aib = CC(C)(N)C(=O)O
T1: human glucose-dependent insulinotropic polypeptide (GIP) receptor (human, UniProt P48546 22-466)
T1 sequence (looked up): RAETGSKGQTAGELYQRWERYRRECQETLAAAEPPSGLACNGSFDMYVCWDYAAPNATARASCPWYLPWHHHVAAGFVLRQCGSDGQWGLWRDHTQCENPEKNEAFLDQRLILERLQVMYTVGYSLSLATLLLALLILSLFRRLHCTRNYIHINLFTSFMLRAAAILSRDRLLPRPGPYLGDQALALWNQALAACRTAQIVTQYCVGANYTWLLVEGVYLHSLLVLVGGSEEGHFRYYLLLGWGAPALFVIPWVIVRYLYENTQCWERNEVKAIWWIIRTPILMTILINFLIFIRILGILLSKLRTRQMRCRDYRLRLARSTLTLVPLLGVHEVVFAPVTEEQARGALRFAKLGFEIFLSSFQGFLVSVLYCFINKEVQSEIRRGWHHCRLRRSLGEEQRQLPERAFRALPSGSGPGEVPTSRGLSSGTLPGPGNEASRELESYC

T2: human GIP receptor (human, UniProt P48546 22-466)
T2 sequence (looked up): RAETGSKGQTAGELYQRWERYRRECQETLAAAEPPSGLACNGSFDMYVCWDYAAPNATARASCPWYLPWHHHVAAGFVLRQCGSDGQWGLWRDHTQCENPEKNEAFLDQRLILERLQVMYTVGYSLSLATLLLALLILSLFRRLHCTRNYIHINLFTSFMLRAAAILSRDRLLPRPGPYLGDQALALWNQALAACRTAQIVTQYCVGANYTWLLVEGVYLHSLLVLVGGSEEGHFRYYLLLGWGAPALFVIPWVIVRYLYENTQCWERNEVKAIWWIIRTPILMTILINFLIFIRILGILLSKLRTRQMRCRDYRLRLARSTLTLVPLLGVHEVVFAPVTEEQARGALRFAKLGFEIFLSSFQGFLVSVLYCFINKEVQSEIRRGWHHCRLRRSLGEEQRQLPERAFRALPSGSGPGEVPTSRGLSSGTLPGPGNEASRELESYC


Tests used:
Assay in all cases: cell-based or functional assay
[1] = target: T1, human glucose-dependent insulinotropic …
[2] = target: human glucagon-like peptide-1 (GLP-1) receptor (human, UniProt P43220 24-463)
human glucagon receptor = human glucagon receptor (human, UniProt P47871 26-477)
human GIP receptor = target: T2, human GIP receptor
human GLP-1 receptor = human GLP-1 receptor (human, UniProt P43220 24-463)

Binder	cAMP EC50 [1]	cAMP Emax [1]	cAMP EC50 [2]	cAMP Emax [2]	cAMP EC50 (human glucagon receptor)	cAMP EC50 (1.0% HSA) (human GIP receptor)	cAMP EC50 (1.0% HSA) (human GLP-1 receptor)
Y[Aib]EGT[αMePhe(2-F)]TSDV[Aib]I[αMeL]LD[Orn]K([εLys-γGlu-C14 diacid])AQ[Aib]EFIK([εLys-γGlu-C14 diacid])[αMeY]LIEGGPSSGAPPPS-NH2 [Example 167]	0.0534 nM	99.5%	0.217 nM	91.4%	> 9950 nM		
Y[Aib]EGT[αMePhe(2-F)]TSDV[Aib]I[αMeL]LD[Orn]K([εLys-εLys-γGlu-C14 diacid])AQ[Aib]EFIK([εLys-εLys-γGlu-C14 diacid])[αMeY]LIEGGPSSGAPPPS-NH2 [Example 168]	0.0482 nM	93%	0.312 nM	93.3%	> 9950 nM		
YXEGTXTSDXSIXLDXIAQXEFIKXLIEGGPSSGAPPPSK (Aib2, αMeF(2F)6, 4Pal10, αMeL13, Orn16, Aib20, K24(Z), αMeY25, K40(Z), C-terminal NH2; Z = AEEA2-CO-(CH2)12-CO2H) [Example 194]	0.0233 nM	93.1%	0.317 nM	103%	> 9950 nM		
YXEGTXTSDXSIXLDXIAQXKFIXXLIEGGPSSGAPPPSK (Aib2, αMeF(2F)6, 4Pal10, αMeL13, Orn16, Aib20, K21(Z), D-Glu24, αMeY25, K40(Z), C-terminal NH2; Z = AEEA2-CO-(CH2)12-CO2H) [Example 196]	0.0232 nM		0.356 nM		> 9950 nM		
Y[Aib]EGT[αMeF]TSDV[Aib]I[αMeL]LD[Orn]K([AEEA-AEEA-γGlu-C14 diacid])AQ[Aib]EFIK([AEEA-AEEA-γGlu-C14 diacid])[αMeY]LIEGGKSSGAPPPS-NH2 (not fully specified) [Example 182]	0.368 nM	89%	0.185 nM	96.9%	> 9950 nM		
Y[Aib]EGT[αMePhe(2-F)]TSDV[Aib]I[αMeL]LD[Orn]K([AEEA-AEEA-γGlu-C14 diacid])AQ[Aib]EFI[dE][αMeY]LIEGGK([AEEA-AEEA-γGlu-C14 diacid])SSGAPPPS-NH2 (N-terminus assumed; SMILES CC[C@H](C)[C@H](NC(=O)[C@H](CC(C)C)NC(=O)[C@](C)(Cc1ccc(O)cc1)NC(=O)[C@@H](CCC(=O)O)NC(=O)[C@@H](NC(=O)[C@H](Cc1ccccc1)NC(=O)[C@H](CCC(=O)O)NC(=O)C(C)(C)NC(=O)[C@H](CCC(N)=O)NC(=O)[C@H](C)NC(=O)[C@H](CCCCNC(=O)COCCOCCNC(=O)COCCOCCNC(=O)CC[C@H](NC(=O)CCCCCCCCCCCCC(=O)O)C(=O)O)NC(=O)[C@H](CCCN)NC(=O)[C@H](CC(=O)O)NC(=O)[C@H](CC(C)C)NC(=O)[C@](C)(CC(C)C)NC(=O)[C@@H](NC(=O)C(C)(C)NC(=O)[C@@H](NC(=O)[C@H](CC(=O)O)NC(=O)[C@H](CO)NC(=O)[C@@H](NC(=O)[C@](C)(Cc1ccccc1F)NC(=O)[C@@H](NC(=O)CNC(=O)[C@H](CCC(=O)O)NC(=O)C(C)(C)NC(=O)[C@@H](N)Cc1ccc(O)cc1)[C@@H](C)O)[C@@H](C)O)C(C)C)[C@@H](C)CC)[C@@H](C)CC)C(=O)N[C@@H](CCC(=O)O)C(=O)NCC(=O)NCC(=O)N[C@@H](CCCCNC(=O)COCCOCCNC(=O)COCCOCCNC(=O)CC[C@H](NC(=O)CCCCCCCCCCCCC(=O)O)C(=O)O)C(=O)N[C@@H](CO)C(=O)N[C@@H](CO)C(=O)NCC(=O)N[C@@H](C)C(=O)N1CCC[C@H]1C(=O)N1CCC[C@H]1C(=O)N1CCC[C@H]1C(=O)N[C@@H](CO)C(N)=O)						7.05 nM	20.4 nM
Y[Aib]EGT[αMePhe(2-F)]TSDV[Aib]I[αMeL]LD[Orn]K([AEEA-AEEA-εLys-C14 diacid])AQ[Aib]EFIK([AEEA-AEEA-εLys-C14 diacid])[αMeY]LIEGGPSSGAPPPS-NH2 [Example 166]	0.0774 nM	97%	0.192 nM	90.3%	> 9950 nM		
YXEGTXTSDXSIXLDXKAQXEFIEXLIEGGKSSGAPPPS (Aib2, αMeF(2F)6, 4Pal10, αMeL13, Orn16, K17(Z), Aib20, αMeY25, K31(Z), C-terminal NH2; Z = AEEA2-(γ-Glu)-CO-(CH2)12-CO2H) [Example 158]	0.0204 nM	93.4%	0.448 nM	87.2%	> 9950 nM		
YXEGTXTSDXSIXLDXKAQXEFIKXLIEGGPSSGAPPPS (Aib2, αMeF(2F)6, 4Pal10, αMeL13, Orn16, K17(Z), Aib20, K24(Z), αMeY25, C-terminal NH2; Z = (εK)-(εK)-(γ-Glu)-CO-(CH2)12-CO2H) [Example 162]	0.022 nM	89.7%	0.327 nM		> 9950 nM		
YXEGTXTSDXSIXLDXIAQXEFIKXLIKGGPSSGAPPPS (Aib2, αMeF(2F)6, 4Pal10, αMeL13, Orn16, Aib20, K24(Z), αMeY25, K28(Z), C-terminal NH2; Z = AEEA2-CO-(CH2)12-CO2H) [Example 192]	0.0375 nM		0.518 nM		> 9950 nM		
YXEGTXTSDXSIXLDXKAQXEFIEXLIEGGKSSGAPPPS (Aib2, αMeF(2F)6, 4Pal10, αMeL13, Orn16, K17(Z), Aib20, αMeF25, K31(Z), C-terminal NH2; Z = AEEA2-(γ-Glu)-CO-(CH2)12-CO2H) [Example 159]	0.0198 nM	95.3%	0.558 nM	89.4%	> 9950 nM		
YXEGTXTSDXSIXLDXKAQXEFIXXLIEGGKSSGAPPPS (Aib2, αMeF(2F)6, 4Pal10, αMeL13, Orn16, K17(Z), Ac5c20, D-Glu24, αMeY25, K31(Z), C-terminal NH2; Z = AEEA2-(γ-Glu)-CO-(CH2)12-CO2H) [Example 170]	0.0244 nM		1.03 nM		> 9950 nM		
YXEGTXTSDXSIXLDXIAQXKFIXXLIEGGKSSGAPPPS (not fully specified; Aib2, αMeF(2F)6, 4Pal10, αMeL13, Orn16, Aib20, K21(AEEA2-CO-(CH2)12-CO2H), D-Glu24, αMeY25, K31(AEEA2-CO-(CH2)2-CO2H as printed), C-terminal NH2) [Example 195]	0.0219 nM	88.5%	0.343 nM		> 9950 nM		

Reference: patent US20230265151A1, “GIP/GLP1 CO-AGONIST COMPOUNDS” (priority 2020, published 2023)
